US20060110799A1, “Mitogen-activated protein kinase kinase MEK6 and methods of use thereof” (Signal Pharmaceuticals, Inc., priority 1995, published 2006)
Read-outs that look alike come from different tables or passages of the source. One block for each molecule: values may come before it.

Tests used:
MEK6 = assay: immune complex kinase assay with GST-p38 substrate, HeLa cells transfected with epitope-tagged MEK6; type: cell-based, human; conditions: for stimulation of MEK6 (summary of Example 4): summary statement for transfected HeLa and COS cells
Description: Next, we examined whether MEK6 can activate p38 in vivo. An expression vector encoding epitope-tagged MEK6 (3xHA-MEK6-SRα3) was constructed by replacing serine in position 2 of MEK6 with alanine, adding sequence encoding three copies of a 10 amino acid hemagglutinin (HA) epitope to the N-terminus of MEK6 and ligating the resulting cDNA into SRα3. HeLa cells, cultured in Dulbecco's modified Eagle medium supplemented with 10% fetal calf serum, 500 mg/l L-glutamine, and antibiotics, were transiently transfected with 3xHA-MEK6 using calcium phosphate-mediated DNA precipitation (Graham and van der Eb, Virology 52:456-467 (1973)). Twenty-four hours later cells were stimulated with anisomycin (50 ng/mL) or UV (254 nm; 120 J/m^2) for 0-120 minutes. Cell lysates were prepared by solubilization in lysis buffer as described (Derijard et al., Cell 76:1025-1037 (1994)), and protein concentration of lysates was determined by Bradford assay (Bradford, Ann. Biochem. 72:248-254(1976)).
In an initial experiment we investigated the time course of MEK6 activation by anisomycin and UV treatment of transfected cells. Cell lysates were used in an immune complex kinase assay with GST-p38 substrate, performed as described above except that 30 μg cell lysate was immunoprecipitated for 2 hours with the anti-HA antibody 12CA5 (Boehringer-Mannheim Corp., Indianapolis, Ind.) and then incubated with 1 μg of recombinant substrate. Reactions were separated by SDS-PAGE and quantitated with a phosphorimager and ImageQuant software. The relative level of MEK6 activity in untreated cells was arbitrarily assigned 1.
To investigate the pattern of regulation of MEK6, cells were transiently transfected with 3xHA-MEK6 (as described in Example 3) and treated with various stimulators of the MAPK pathway.
MEKK has been described as a MAPKKK leading to the phosphorylation and activation of JNKK (Lin et al., Science 268:286-290 (1995); Minden et al., Science 266:1719-1722 (1994); Yan et al., Nature 372:798-800 (1994)). In an initial experiment, HeLa (FIG. 7A) or COS (FIG. 7B) cells were transiently transfected with epitope-tagged MEK6 (lanes 1 to 12) or the empty expression vector SRα3 (lanes 13 to 16) and treated for 45 min with IL-1β (10 ng/ml), TNF-α (10 ng/ml), EGF (50 ng/ml), NGF (50 ng/ml), PMA (50 ng/ml), Anisomycin (50 ng/ml), Cycloheximide (CX, 50 ng/ml), Arsenite (200 μM), NaCl (200 μM), UV (254 nm; 120 J/m^2) or cotransfected with 1000 ng CMV5-MEKK as indicated. Cell lysates were used in an immune complex kinase assay with GST-p38 substrate as described in Example 3. MEK6 activity was quantitated with a phosphorimager and ImageQuant software.

MEK6 / p38 / ATF2 = assay: coupled immune complex kinase assay, MEK6 from anisomycin-treated HeLa cells, recombinant p38 and ATF2; type: cell-based, human; conditions: anisomycin 45 minutes, 50 ng/mL, FIG. 6
Description: To determine whether the increase in p38 phosphorylation by activated MEK6 augments p38 kinase activity a coupled immune complex kinase assay was performed. Epitope-tagged MEK6 was isolated from anisomycin-treated HeLa cells (45 minutes; 50 ng/mL) and subjected to two subsequent kinase reactions as described above using recombinant p38, ATF2 and GST alone. […] Similar results have been found with MEK6 activated by UV treatment of cells (data not shown). […] This phosphorylation event was slightly augmented by anisomycin in the presence of MEK6 (FIG. 6, compare lanes 3 and 4 with lanes 11 and 12). This protein was not observed in in vitro kinase assays, and therefore is most likely a contamination of the immunoprecipitation.

His-ERK1[K52R] = assay: in vitro kinase assay with bacterially expressed MAPK substrate; type: biochemical; conditions: 0.5 μg recombinant kinase, 1 μg substrate, 50 nM [γ-32P]ATP
Description: (§1) A MEK6 kinase assay may be performed substantially as described in Derijard et al., Cell 76:1025-1037 (1994) and Lin et al., Science 268:286-290 (1995), with minor modifications. Briefly, a polypeptide variant of MEK6 may be incubated with p38 and [γ-^32P]ATP in a suitable buffer (such as 20 mM HEPES (pH 7.6), 5 mM MnCl2, 10 mM MgCl2, 1 mM dithiothreitol) for 30 minutes at 30° C. In general, approximately 0.5 μg of the variant and 1 μg recombinant p38, with 50 nM [γ-^32P]ATP, is sufficient. Proteins may then be separated by SDS-PAGE on 10% gels and subjected to autoradiography. Incorporation of [^32P]phosphate into p38 may be quantitated using techniques well known to those of ordinary skill in the art, such as with a phosphorimager. To evaluate the substrate specificity of polypeptide variants, a kinase assay may generally be performed as described above except that other MAPK substrates (i.e., JNK2 and/or ERK) are substituted for the p38.
(§2) cDNAs encoding MEK6 and MKK3 were subcloned into a bacterial GST-fusion protein expression vector. GST-MEK6 was constructed by ligating a 1.3 kb DNA fragment encoding amino acid 1 through the stop codon of MEK6 with a serine to alanine substitution of amino acid 2 into pGEX-KG (Guan and Dixon, Ann. Biochem. 192:262-267 (1991)). Similarly, GST-MKK3, GST-p38 and GST-JNK2 were constructed by ligating the respective cDNA fragments encoding amino acid 1 through the stop codon into pGEX-KG. Human p38 cDNA (Genbank accession number U10871) was cloned by PCR amplification of a Jurkat cDNA library with primers against the 5′ end (5′-[…]-3′) (SEQ ID NO:5) and 3′ end (5′-[…]-3′) (SEQ ID NO:6) of the published human p38 sequence. Each strand of the PCR fragment was sequenced several times with an ABI 373 Automated Sequencer. His-ERK1[K52R] was prepared as described previously (Robbins et al., J. Biol. Chem. 268:5097-5106 (1993)).
(§3) We investigated the substrate specificity of MEK6 in an in vitro kinase assay with bacterially expressed MAPK substrates (GST-JNK2, GST-p38 and His-ERK1[K52R]). The assays were performed as previously described (Derijard et al., Cell 76:1025-1037 (1994); Lin et al., Science 268:286-290 (1995)) with minor modifications. 0.5 μg recombinant kinase and 1 μg recombinant substrate were used, and the concentration of [γ-^32P]ATP was 50 nM. Phosphorylated proteins were separated by SDS-PAGE on 10% gels and then subjected to autoradiography. Incorporation of [^32P]phosphate was quantitated with a phosphorimager and ImageQuant software (Molecular Dynamics, Inc., Sunnyvale, Calif.).

GST-JNK2 = target: T1, GST-JNK2 (Homo sapiens, UniProt P45984); assay: as above; type: biochemical; conditions: 0.5 μg recombinant kinase, 1 μg substrate, 50 nM [γ-32P]ATP
T1 construct: ligating the respective cDNA fragments encoding amino acid 1 through the stop codon into pGEX-KG; made in house; host or cells: bacteria (pGEX-KG)
Description: as §1, §2, §3

GST-p38 [1] = target: T2, GST-p38 (Homo sapiens, UniProt Q16539, S2A); assay: as above; type: biochemical; conditions: 0.5 μg recombinant kinase, 1 μg substrate, 50 nM [γ-32P]ATP
T2 construct: ligating the respective cDNA fragments encoding amino acid 1 through the stop codon into pGEX-KG; made in house; host or cells: bacteria (pGEX-KG)
T2 sequence (Q16539 whole entry S2A, the tested form may be a part): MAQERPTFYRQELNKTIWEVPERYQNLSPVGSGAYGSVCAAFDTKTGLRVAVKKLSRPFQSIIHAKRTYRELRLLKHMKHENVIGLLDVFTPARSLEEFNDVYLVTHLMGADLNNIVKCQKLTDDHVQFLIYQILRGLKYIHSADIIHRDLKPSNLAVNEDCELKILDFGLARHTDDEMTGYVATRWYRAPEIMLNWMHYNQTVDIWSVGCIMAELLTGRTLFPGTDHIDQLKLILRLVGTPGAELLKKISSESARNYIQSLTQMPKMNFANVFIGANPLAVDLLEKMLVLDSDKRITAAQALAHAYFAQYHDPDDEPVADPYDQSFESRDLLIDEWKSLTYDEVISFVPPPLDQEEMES
Description: as §1, §2, §3

GST-p38 [2] = target: T3, GST-p38 (Homo sapiens, UniProt P52564, S2A); assay: as above; type: biochemical; conditions: in vitro kinase assay, compared to MKK3
T3 construct: ligating the respective cDNA fragments encoding amino acid 1 through the stop codon into pGEX-KG; made in house; host or cells: bacteria (pGEX-KG)
T3 sequence (P52564 1-334 S2A): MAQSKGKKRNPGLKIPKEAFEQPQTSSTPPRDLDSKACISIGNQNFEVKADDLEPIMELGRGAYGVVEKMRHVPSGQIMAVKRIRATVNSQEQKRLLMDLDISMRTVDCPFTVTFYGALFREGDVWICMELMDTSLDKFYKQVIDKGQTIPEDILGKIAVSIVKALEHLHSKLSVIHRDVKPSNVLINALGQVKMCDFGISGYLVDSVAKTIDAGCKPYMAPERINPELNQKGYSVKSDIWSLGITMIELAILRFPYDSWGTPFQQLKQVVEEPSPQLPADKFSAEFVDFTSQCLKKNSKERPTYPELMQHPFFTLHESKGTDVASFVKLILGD
Description: as §1, §2, §3

GST-p38 / GST-ATF2 = assay: coupled in vitro kinase assay (p38, GST-ATF2); type: biochemical, human
Description: To determine whether p38 phosphorylation results in activation, a coupled in vitro kinase assay may be performed using a substrate for p38, such as ATF2, with or without an epitope tag. ATF2 for use in such an assay may be prepared as described in Gupta et al., Science 257:389-393 (1995). Briefly, following phosphorylation of p38 as described above, isolation of the protein by binding to GSH-sepharose and washing with 20 mM HEPES (pH 7.6), 20 mM MgCl2, the p38 (0.1-10 μg) may be incubated with ATF2 (0.1-10 μg) and [γ-^32P]ATP (10-500 nM) in a buffer containing 20 mM HEPES (pH 7.6), 20 mM MgCl2. It should be noted that alternative buffer may be used and that buffer composition can vary without significant effects on kinase activity. Reactions may be separated by SDS-PAGE, visualized by autoradiography and quantitated using any of a variety of known techniques. Activated p38 will be capable of phosphorylating ATF2 at a level of at least 5% above background using this assay.
To determine whether phosphorylation of p38 is an activating event we analyzed the phosphorylation of recombinant ATF2 (a substrate for p38) in a coupled in vitro kinase assay. […] Reactions were separated by SDS-PAGE and visualized by autoradiography.

[3] = test system: GST-JNK2 / GST-cJun(1-79); assay: coupled in vitro kinase assay (JNK2, GST-cJun(1-79)); type: biochemical; conditions: FIG. 3B lanes 1 to 3
[4] = HeLa cells, 45 min, anisomycin 50 ng/ml, NaCl 200 μM, IL-1β 10 ng/ml, EGF 50 ng/ml, NGF 50 ng/ml, CMV5-MEKK 1000 ng cotransfected, FIG. 7A
[5] = HeLa cells, anisomycin 50 ng/mL, FIG. 4

Molecule: NGF: strong inducer of the ERK pathway
induction of MEK6 kinase activity (MEK6; [4]): did not activate MEK6
stimulation of MEK6 (summary of Example 4) (MEK6): did not stimulate MEK6

Molecule: COc1ccc(C[C@H]2NC[C@H](O)[C@H]2OC(C)=O)cc1 [anisomycin]
phosphorylation of ATF2 after anisomycin treatment (MEK6 / p38 / ATF2): increased phosphorylation of ATF2 only when MEK6 and p38 were present
induction of MEK6 kinase activity (MEK6; [4]): strongest inducers
time at which MEK6 activation was first observed after treatment (MEK6; [5]): 10 min
time of peak MEK6 activation after treatment (MEK6; [5]): 40 min
stimulation of MEK6 (summary of Example 4) (MEK6): strongly activated

Molecule: IL-1β: cytokine stimulator
induction of MEK6 kinase activity (MEK6; [4]): weak induction

Molecule: C[C@@H]1C[C@@H]([C@H](O)CC2CC(=O)NC(=O)C2)C(=O)[C@@H](C)C1 [cycloheximide]
stimulation of MEK6 (summary of Example 4) (MEK6): did not significantly activate MEK6

Molecule: [Cl-].[Na+] [NaCl]
induction of MEK6 kinase activity (MEK6): strongest inducers

Molecule: EGF: strong inducer of the ERK pathway
induction of MEK6 kinase activity (MEK6; [4]): did not activate MEK6
stimulation of MEK6 (summary of Example 4) (MEK6): did not stimulate MEK6

phosphorylation of ERK1[K52R] by MEK6 (His-ERK1[K52R]): none of the other substrates
phosphorylation of JNK2 by MEK6 (GST-JNK2): none of the other substrates
phosphorylation of p38 by MEK6 (GST-p38 [1]): efficiently phosphorylated p38
autophosphorylation of MEK6 (GST-p38 [2]): very low compared to MKK3
phosphorylation of ATF2 by p38 activated by MEK6 (GST-p38 / GST-ATF2; FIG. 3B lane 5): strongly phosphorylated
direct phosphorylation of ATF2 by MEK6 (GST-p38 / GST-ATF2; without p38): not directly phosphorylated
B1: MEK6: human mitogen-activated protein kinase kinase, SEQ ID NO:2, 334 amino acids; used as GST fusion or HA epitope-tagged (protein)
chain: SQSKGKKRNPGLKIPKEAFEQPQTSSTPPRDLDSKACISIGNQNFEVKADDLEPIMELGRGAYGVVEKMRHVPSGQIMAVKRIRATVNSQEQKRLLMDLDISMRTVDCPFTVTFYGALFREGDVWICMELMDTSLDKFYKQVIDKGQTIPEDILGKIAVSIVKALEHLHSKLSVIHRDVKPSNVLINALGQVKMCDFGISGYLVDSVAKTIDAGCKPYMAPERINPELNQKGYSVKSDIWSLGITMIELAILRFPYDSWGTPFQQLKQVVEEPSPQLPADKFSAEFVDFTSQCLKKNSKERPTYPELMQHPFFTLHESKGTDVASFVKLILGD
modifications: GST fusion or HA tag; homo sapien
phosphorylation of Jun, directly or in combination with JNK2 [3]: did not cause increased phosphorylation of Jun
